In paper PMC4691852 (Molecular cell, 2013):
Like-named read-outs stand apart in the source and are kept apart here.

T1: MazF (Bacillus subtilis, UniProt P96622 1-116)
T1 sequence: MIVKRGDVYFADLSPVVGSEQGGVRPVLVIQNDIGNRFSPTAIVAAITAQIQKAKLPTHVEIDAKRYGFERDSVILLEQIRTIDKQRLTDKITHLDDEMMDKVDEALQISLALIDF


How the values were obtained:
MazF = biological target: T1, MazF; assay: ITC
crystal structure [1] = biological target: the molecule itself; assay: crystal structure
crystal structure [2] = biological target: the molecule itself; assay: crystal structure; remark: listed apart in the source

Row | Binder | stoichiometry N (crystal structure [2]) | other results
1 | UUUACAUAA (ssRNA, 2'-deoxyuridine at position 3 (other residues ribo)) [uncleavable 9-mer RNA UUdUACAUAA] |  | Kd (MazF): 64 nM
2 | Bacillus subtilis MazF (toxin, mRNA interferase), expressed alone from pET-SUMO (enzyme) MIVKRGDVYFADLSPVVGSEQGGVRPVLVIQNDIGNRFSPTAIVAAITAQIQKAKLPTHVEIDAKRYGFERDSVILLEQIRTIDKQRLTDKITHLDDEMMDKVDEALQISLALIDF |  | stoichiometry N (crystal structure [1]): 2
3 | Bacillus subtilis MazF coexpressed with MazE from modified pRSFDuet-1 (enzyme, selenomethionine-labelled (for the crystals)) MIVKRGDVYFADLSPVVGSEQGGVRPVLVIQNDIGNRFSPTAIVAAITAQIQKAKLPTHVEIDAKRYGFERDSVILLEQIRTIDKQRLTDKITHLDDEMMDKVDEALQISLALIDF | 2 | 
4 | Bacillus subtilis MazE (antitoxin) coexpressed with MazF from modified pRSFDuet-1 (natural protein, selenomethionine-labelled (for the crystals)) MSESSARTEMKISLPENLVAELDGVAMREKRSRNELISQAVRAYVSERTTRHNRDLMRRGYMEMAKINLNISSEAHFAECEAETTVERLVSGG | 2 | 
